Assay results reported in the supplement of paper PMC10065799, “High-throughput profiling of sequence recognition by tyrosine kinases and SH2 domains using bacterial peptide display” (eLife, 2023).

biological target: Fes (UniProt P07332); experiment: phosphorylation enrichment, bacterial display (enrichment ratio); higher = better substrate or ligand; peptides without Tyr show the background
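Note: 11-residue human phosphosite peptides and single-mutation variants displayed on the E. coli surface, counted by deep sequencing, each peptide's frequency after selection divided by its frequency in the unselected input library; frequency after pTyr selection over input frequency; kinase dosed for 20-30% of maximal phosphorylation in three min.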

Fes, sequence (P07332 whole entry, looked up): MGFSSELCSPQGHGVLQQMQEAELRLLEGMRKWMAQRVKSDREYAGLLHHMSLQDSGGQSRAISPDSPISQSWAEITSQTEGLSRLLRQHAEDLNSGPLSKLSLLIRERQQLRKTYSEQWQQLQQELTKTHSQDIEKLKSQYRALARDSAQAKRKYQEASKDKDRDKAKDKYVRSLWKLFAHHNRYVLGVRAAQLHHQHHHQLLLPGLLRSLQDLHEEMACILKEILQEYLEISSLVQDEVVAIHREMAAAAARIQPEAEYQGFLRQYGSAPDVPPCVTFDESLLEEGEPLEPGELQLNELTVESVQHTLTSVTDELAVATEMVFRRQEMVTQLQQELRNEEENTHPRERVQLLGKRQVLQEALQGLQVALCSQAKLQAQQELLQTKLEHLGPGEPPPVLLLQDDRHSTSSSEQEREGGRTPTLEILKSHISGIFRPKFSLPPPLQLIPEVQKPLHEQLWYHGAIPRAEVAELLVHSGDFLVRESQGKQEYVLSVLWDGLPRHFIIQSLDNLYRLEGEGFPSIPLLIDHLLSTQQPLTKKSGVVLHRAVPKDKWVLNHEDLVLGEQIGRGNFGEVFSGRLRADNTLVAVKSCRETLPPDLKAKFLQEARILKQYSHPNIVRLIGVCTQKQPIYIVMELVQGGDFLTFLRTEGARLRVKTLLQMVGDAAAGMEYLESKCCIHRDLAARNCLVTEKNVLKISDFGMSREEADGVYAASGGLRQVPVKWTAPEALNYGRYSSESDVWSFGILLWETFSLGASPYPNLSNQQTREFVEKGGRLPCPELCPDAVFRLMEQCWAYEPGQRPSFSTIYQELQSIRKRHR

Going from GLTSTYAGIRK [ROBO1_Y932] to SPGGDYAAMGA [ERBB3_Y1276_G1271S], the phosphorylation enrichment rises from 0.66 to 0.861.

Going from DTNIAYCLHPR [POMT1_Y581_W582C] to GCVSKYSGVFS [TUBGCP6_Y1624], the phosphorylation enrichment falls from 1.06 to 0.964.

Compared with EADRKYEEVAR [TPM3_Y163], QRALLYEDTLY [UNC13D_Y56_A59T] is higher in phosphorylation enrichment: 1.46 for the first, 2.2 for the second.

Going from IDDNEYAFLKA [HNF4A_Y286_YF] to DESEDYRDTVV [CNNM3_Y456], the phosphorylation enrichment rises from 1.32 to 1.59.

Compared with FIGCIYLFLTK [GARS1_Y414_R412C_YF], HLRAGYIIPLQ [GAA_Y822] is lower in phosphorylation enrichment: 0.772 for the first, 0.753 for the second.

Compared with PVDVAYRHGYF [PLEC_Y2967_R2969H], MSNFAYVKREV [SCN1A_Y1694] is lower in phosphorylation enrichment: 1.05 for the first, 0.986 for the second.

First: HYGNNYRDVLQ [MACC1_Y803]
Second: PVDTYYDSTRG [DYNC2H1_Y2231_M2227V]
The phosphorylation enrichment of the first is lower: 0.576 for the first, 1.12 for the second.

Compared with ENEGTYVCIAT [ADAMTSL3_Y1365], LQPNNYQFCGG [CSF1R_Y969] is lower in phosphorylation enrichment: 1.38 for the first, 1.18 for the second.

Compared with KPMDTYYDSTR [DYNC2H1_Y2230], ADDSYYTVRSA [ZAP70_Y493_A495V] is higher in phosphorylation enrichment: 0.774 for the first, 0.941 for the second.

First: QRRLVYYEGGA [RYR1_Y245]
Second: CTTIHYSYMCN [TP53_Y234_N235S]
The phosphorylation enrichment of the first is higher: 1.11 for the first, 0.916 for the second.

Compared with MNLLGYRQVRS [CHST4_Y359_H361Q], KLFFHYDPKLC [INSR_Y457_N458D] is higher in phosphorylation enrichment: 0.72 for the first, 1.25 for the second.

Compared with RNDRVYQPLRD [CD3D_Y149_Q147R], FMLFQYLKQIE [RPAP3_Y569_D564Y_YF] is higher in phosphorylation enrichment: 0.785 for the first, 1.36 for the second.

Compared with FSLIHYAGIVV [MYH7_Y582_D587V], PVDGEYFTLQI [TP53_Y327_L323V] is higher in phosphorylation enrichment: 1.37 for the first, 1.86 for the second.

First: ILDEAYVMASV [EGFR_Y764]
Second: IDGLEYLHSQG [STK11_Y166]
The phosphorylation enrichment of the first is higher: 1.33 for the first, 0.906 for the second.

Compared with DGNIDYAEFAK [MCFD2_Y138_Y135N], YSSLGYPPPEG [ZSWIM4_Y87] is lower in phosphorylation enrichment: 1.2 for the first, 0.793 for the second.

Compared with ATPKGYETDAS [OTC_Y223_P225T], ECKLRYSRKEG [PTPN11_Y263_L262R] is lower in phosphorylation enrichment: 0.743 for the first, 0.606 for the second.

Work on DGMADYSDPSY [CDC5L_Y459] yielded a phosphorylation enrichment of 1.3.

biological target: Fyn (UniProt P06241); experiment: as above
Sequence (P06241 whole entry, looked up): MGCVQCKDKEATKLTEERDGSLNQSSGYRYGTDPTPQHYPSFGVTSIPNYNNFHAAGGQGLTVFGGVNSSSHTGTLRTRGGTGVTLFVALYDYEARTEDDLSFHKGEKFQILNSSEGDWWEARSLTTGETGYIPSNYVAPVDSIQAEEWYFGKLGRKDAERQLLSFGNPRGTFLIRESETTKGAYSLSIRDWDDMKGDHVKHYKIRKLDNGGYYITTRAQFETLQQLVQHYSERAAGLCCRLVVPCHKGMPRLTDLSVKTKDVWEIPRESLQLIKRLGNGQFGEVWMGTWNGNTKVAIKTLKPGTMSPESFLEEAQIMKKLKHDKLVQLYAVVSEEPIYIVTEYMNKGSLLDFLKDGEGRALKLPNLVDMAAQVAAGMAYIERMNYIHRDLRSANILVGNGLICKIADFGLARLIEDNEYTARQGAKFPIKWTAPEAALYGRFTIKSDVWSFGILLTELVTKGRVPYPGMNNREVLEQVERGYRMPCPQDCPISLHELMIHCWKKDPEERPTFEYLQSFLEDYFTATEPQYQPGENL

Going from GLTSTYAGIRK [ROBO1_Y932] to SPGGDYAAMGA [ERBB3_Y1276_G1271S], the phosphorylation enrichment falls from 1.46 to 0.484.

Compared with DTNIAYCLHPR [POMT1_Y581_W582C], GCVSKYSGVFS [TUBGCP6_Y1624] is lower in phosphorylation enrichment: 0.541 for the first, 0.357 for the second.

Compared with EADRKYEEVAR [TPM3_Y163], QRALLYEDTLY [UNC13D_Y56_A59T] is higher in phosphorylation enrichment: 0.58 for the first, 3.98 for the second.

Compared with IDDNEYAFLKA [HNF4A_Y286_YF], DESEDYRDTVV [CNNM3_Y456] is lower in phosphorylation enrichment: 0.8 for the first, 0.623 for the second.

First: FIGCIYLFLTK [GARS1_Y414_R412C_YF]
Second: HLRAGYIIPLQ [GAA_Y822]
The phosphorylation enrichment of the first is lower: 0.399 for the first, 0.417 for the second.

First: PVDVAYRHGYF [PLEC_Y2967_R2969H]
Second: MSNFAYVKREV [SCN1A_Y1694]
The phosphorylation enrichment of the first is higher: 0.536 for the first, 0.418 for the second.

Going from HYGNNYRDVLQ [MACC1_Y803] to PVDTYYDSTRG [DYNC2H1_Y2231_M2227V], the phosphorylation enrichment rises from 0.353 to 1.09.

Compared with ENEGTYVCIAT [ADAMTSL3_Y1365], LQPNNYQFCGG [CSF1R_Y969] is lower in phosphorylation enrichment: 1.44 for the first, 1.14 for the second.

Going from KPMDTYYDSTR [DYNC2H1_Y2230] to ADDSYYTVRSA [ZAP70_Y493_A495V], the phosphorylation enrichment rises from 0.543 to 2.01.

First: QRRLVYYEGGA [RYR1_Y245]
Second: CTTIHYSYMCN [TP53_Y234_N235S]
The phosphorylation enrichment of the first is lower: 0.369 for the first, 0.465 for the second.

Going from MNLLGYRQVRS [CHST4_Y359_H361Q] to KLFFHYDPKLC [INSR_Y457_N458D], the phosphorylation enrichment falls from 0.468 to 0.342.

Going from RNDRVYQPLRD [CD3D_Y149_Q147R] to FMLFQYLKQIE [RPAP3_Y569_D564Y_YF], the phosphorylation enrichment falls from 0.675 to 0.447.

Going from FSLIHYAGIVV [MYH7_Y582_D587V] to PVDGEYFTLQI [TP53_Y327_L323V], the phosphorylation enrichment rises from 0.532 to 4.09.

Going from ILDEAYVMASV [EGFR_Y764] to IDGLEYLHSQG [STK11_Y166], the phosphorylation enrichment rises from 0.505 to 0.619.

First: DGNIDYAEFAK [MCFD2_Y138_Y135N]
Second: YSSLGYPPPEG [ZSWIM4_Y87]
The phosphorylation enrichment of the first is lower: 0.804 for the first, 2.36 for the second.

Going from ATPKGYETDAS [OTC_Y223_P225T] to ECKLRYSRKEG [PTPN11_Y263_L262R], the phosphorylation enrichment rises from 0.44 to 0.52.

DGMADYSDPSY [CDC5L_Y459] was tested, and the phosphorylation enrichment was 0.571.
